# Source: patent publication US20140093973A1 (BOARD OF REGENTS OF THE UNIVERSITY OF OKLAHOMA, published 2014)
# Ends that are not written are not given here.
# Legend:
# [1] = molecular target: soluble HLA-A*0201 (sHLA-A*0201) (human); experiment: FP screen
# [2] = molecular target: T1, soluble HLA-B*2705 (sHLA-B*2705) (human); experiment: FP screen
# T1 construct: Recombinant soluble class I with endogenous peptides, made as m1; negative control
# soluble HLA-A*0101 = molecular target: T2, soluble HLA-A*0101 (human); experiment: FP screen
# T2 construct: Member of the panel of 53 single-specificity sHLA
# soluble HLA-A*3601 = molecular target: T3, soluble HLA-A*3601 (human); experiment: FP screen
# T3 construct: Member of the panel of 53 single-specificity sHLA
# soluble HLA-A*2601 = molecular target: T4, soluble HLA-A*2601 (human); experiment: FP screen
# T4 construct: Member of the panel of 53 single-specificity sHLA
# soluble HLA-B*1302 = molecular target: T5, soluble HLA-B*1302 (human); experiment: FP screen
# T5 construct: Member of the panel of 53 single-specificity sHLA
# soluble HLA-B*1501 = molecular target: T6, soluble HLA-B*1501 (human); experiment: FP screen
# T6 construct: Member of the panel of 53 single-specificity sHLA
# soluble HLA-B*1512 = molecular target: T7, soluble HLA-B*1512 (human); experiment: FP screen
# T7 construct: Member of the panel of 53 single-specificity sHLA
# [3] = molecular target: T8, soluble HLA-A*6901 (sHLA-A*6901) (human); experiment: FP screen
# T8 construct: Recombinant soluble class I with endogenous peptides, made as m1
# soluble HLA-A*2402 = molecular target: T9, soluble HLA-A*2402 (human); experiment: FP screen
# T9 construct: Member of the panel of 53 single-specificity sHLA
# soluble HLA-A*2301 = molecular target: T10, soluble HLA-A*2301 (human); experiment: FP screen
# T10 construct: Member of the panel of 53 single-specificity sHLA
# soluble HLA-A*6601 = molecular target: T11, soluble HLA-A*6601 (human); experiment: FP screen
# T11 construct: Member of the panel of 53 single-specificity sHLA
# soluble HLA-B*4501 = molecular target: T12, soluble HLA-B*4501 (human); experiment: FP screen
# T12 construct: Member of the panel of 53 single-specificity sHLA
# soluble HLA-A*3002 = molecular target: T13, soluble HLA-A*3002 (human); experiment: FP screen
# T13 construct: Member of the panel of 53 single-specificity sHLA
# soluble HLA-B*1801 = molecular target: T14, soluble HLA-B*1801 (human); experiment: FP screen
# T14 construct: Member of the panel of 53 single-specificity sHLA
# soluble HLA-B*4002 = molecular target: T15, soluble HLA-B*4002 (human); experiment: FP screen
# T15 construct: Member of the panel of 53 single-specificity sHLA
# soluble HLA-B*4001 = molecular target: T16, soluble HLA-B*4001 (human); experiment: FP screen
# T16 construct: Member of the panel of 53 single-specificity sHLA
# soluble HLA-B*4402 = molecular target: T17, soluble HLA-B*4402 (human); experiment: FP screen
# T17 construct: Member of the panel of 53 single-specificity sHLA
# [4] = molecular target: T18, soluble HLA-A*4301 (sHLA-A*4301) (human); experiment: FP screen
# T18 construct: Recombinant soluble class I with endogenous peptides, made as m1
# soluble HLA-A*3402 = molecular target: T19, soluble HLA-A*3402 (human); experiment: FP screen of 53 sHLA with FITC-peptide
# T19 construct: Member of the panel of 53 single-specificity sHLA
# soluble HLA-A*0301 = molecular target: T20, soluble HLA-A*0301 (human); experiment: FP screen of 53 sHLA with FITC-peptide
# T20 construct: Member of the panel of 53 single-specificity sHLA
binder,measurement,setting,value
"KVFPKALINK (also: FITC-labeled, position not given here) [KVFPKALINK, FITC-labeled A3-like peptide]",binding result,[1],no binding (tested: 100 ug/ml sHLA)
same,binding result,[2],no binding (tested: 100 ug/ml sHLA)
same,binding result,soluble HLA-A*0101,no binding (tested: 100 ug/ml sHLA)
same,binding result,soluble HLA-A*3601,no binding (tested: 100 ug/ml sHLA)
same,binding result,soluble HLA-A*2601,no binding (tested: 100 ug/ml sHLA)
same,binding result,soluble HLA-B*1302,no binding (tested: 100 ug/ml sHLA)
same,binding result,soluble HLA-B*1501,no binding (tested: 100 ug/ml sHLA)
same,binding result,soluble HLA-B*1512,no binding (tested: 100 ug/ml sHLA)
same,binding result,[3],no binding (tested: 100 ug/ml sHLA)
same,binding result,soluble HLA-A*2402,no binding (tested: 100 ug/ml sHLA)
same,binding result,soluble HLA-A*2301,no binding (tested: 100 ug/ml sHLA)
same,binding result,soluble HLA-A*6601,no binding (tested: 100 ug/ml sHLA)
same,binding result,soluble HLA-B*4501,no binding (tested: 100 ug/ml sHLA)
same,binding result,soluble HLA-A*3002,no binding (tested: 100 ug/ml sHLA)
same,binding result,soluble HLA-B*1801,no binding (tested: 100 ug/ml sHLA)
same,binding result,soluble HLA-B*4002,no binding (tested: 100 ug/ml sHLA)
same,binding result,soluble HLA-B*4001,no binding (tested: 100 ug/ml sHLA)
same,binding result,soluble HLA-B*4402,no binding (tested: 100 ug/ml sHLA)
same,binding result,[4],no binding (tested: 100 ug/ml sHLA)
same,binding result,soluble HLA-A*3402,binds
same,binding result,soluble HLA-A*0301,binds
